From patent US20260124314A1, “ANTl-5T4 ANTIGEN BINDING DOMAINS, ANTIBODY-DRUG CONJUGATES AND METHODS OF USE THEREOF” (Salubris Biotherapeutics, Inc., priority 2023, published 2026) come the findings set out here.

Experiment [1] has as its target T1, 5T4 (Homo sapiens, UniProt Q13641).
T1 sequence (Q13641 32-420): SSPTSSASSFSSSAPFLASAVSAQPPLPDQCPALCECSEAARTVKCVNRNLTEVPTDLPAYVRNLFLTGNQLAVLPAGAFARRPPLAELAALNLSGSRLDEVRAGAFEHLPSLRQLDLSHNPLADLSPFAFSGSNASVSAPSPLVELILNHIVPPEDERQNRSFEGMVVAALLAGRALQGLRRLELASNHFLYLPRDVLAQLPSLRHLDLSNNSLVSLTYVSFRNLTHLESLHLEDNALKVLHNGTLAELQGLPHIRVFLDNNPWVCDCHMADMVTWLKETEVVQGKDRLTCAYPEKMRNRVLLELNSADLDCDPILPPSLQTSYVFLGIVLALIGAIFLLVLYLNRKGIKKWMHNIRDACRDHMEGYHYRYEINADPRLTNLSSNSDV
Kind of experiment: Non-overlapping epitope binding assay (SPR). The following applies: mouse antibody captured, 5T4 injected, then humanized antibody. The method, then:
To examine epitope binding of anti-5T4 bispecific antibody-drug conjugate parental monospecific antibodies, surface plasmon resonance (SPR) binding experiments were performed using Biacore™ 8K systems (Cytiva™). HBS-EP+ buffer (10 mM HEPES, 150 mM NaCl, 3 mM EDTA and 0.05% v/v Surfactant P20) was used as running buffer. Anti-mouse IgG antibodies from the mouse antibody capture kit (Cytiva) were coupled in active flow cells on a CM5 sensor chip using an amine coupling kit (Cytiva), whereas the reference cell was left blank. As the first step, mouse monospecific antibody Ab1 or Ab2 was injected over both cells on all experimental channels. Second, test article 5T4 or buffer was injected over both cells on the corresponding channel. Third, humanized monospecific antibody Ab1 or Ab2, or buffer, was injected over both cells on all experimental channels. After each binding cycle, the sensor chip was regenerated with 10 mM Glycine-HCl pH1.7. SPR signals (RU) were recorded in real-time and plotted against time to generate binding sensorgrams. Sensorgrams from multiple channels were overlaid using Biacore 8K Evaluation Software.
To confirm the non-overlapping epitope binding of the select monospecific antibody Nos. 1 and 2, a surface plasmon resonance (SPR) technology-based binding assay was performed. […]

The target in experiment [2] is T2, recombinant human 5T4 protein (human, UniProt Q13641 32-355).
T2 construct: The ELISA protein was bought (Sino biologics and Biorbyt); also called recombinant 5T4 protein; trophoblast glycoprotein (TPBG)
T2 sequence: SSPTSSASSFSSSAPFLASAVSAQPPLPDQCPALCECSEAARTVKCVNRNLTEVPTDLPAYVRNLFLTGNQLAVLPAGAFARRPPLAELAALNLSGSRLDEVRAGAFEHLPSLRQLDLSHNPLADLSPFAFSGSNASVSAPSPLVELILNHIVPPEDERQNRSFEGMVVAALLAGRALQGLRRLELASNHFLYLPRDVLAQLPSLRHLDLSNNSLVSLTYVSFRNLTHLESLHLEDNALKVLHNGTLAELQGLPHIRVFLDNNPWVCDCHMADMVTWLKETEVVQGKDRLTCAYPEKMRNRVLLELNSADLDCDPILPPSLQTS
Description: SPR (Biacore 8K, optimized assay): antibody captured on a protein A chip, recombinant 5T4 injected at 0.02-5 µg/mL, one-to-one binding model. The method, then: (§1) SPR kinetic experiments were performed on Biacore 8K systems (GE healthcare) with HBS-EP+ as running buffer. […] Capture level for each antibody was maintained between 50-100 RU. The final analyte binding level at the highest concentration was maintained below 50 RU. […] After each binding cycle, the sensor chip was regenerated with glycine solution (pH 1.5). The resulting sensorgrams were fitted with a one-to-one binding model to extract kinetic constants using Biacore 8K Evaluation Software.
A general note: Surface plasmon resonance follows binding to a sensor surface in real time, without labels.

The target of experiment [3] is T2, recombinant human 5T4 protein. Kind of experiment: optimized SPR (Biacore 8K), antibody captured on Protein A chip, recombinant 5T4 as analyte 0.02 to 5 µg/mL, 1:1 model. The method, then:
as §1

The target is the same in experiment [4]. Kind of experiment: SPR (Biacore 8K): antibody captured on a protein A chip, 5T4 protein injected at 0.625-10 nM, 1:1 binding model; FIG. 4C on D00005 prints the same value as 7.42e-11. The method, then:
(§2) The binding affinity of anti-5T4 bispecific antibody-drug conjugate monospecific and bispecific antibodies to 5T4 was measured by Biacore kinetic experiments using a Protein A sensor chip on Biacore 8K (Cytiva) with HBS-EP+ as running buffer. […] After each binding cycle, the sensor chip was regenerated with glycine solution, pH 1.5. Signals from reference surface and an ensemble of buffer blank injections were subtracted from binding signals to correct for nonspecific binding and injection artifacts. The corrected experimental signals were globally fitted to a 1:1 binding model to extract kinetic constants, including association rate constant (ka), dissociation rate constant (kd), and equilibrium dissociation constant (KD), using the Biacore 8K Evaluation Software.

Experiment [5] shares this target. Kind of experiment: SPR (Biacore 8K), antibody captured on Protein A chip, 5T4 as analyte 0.625-10 nM, 1:1 model. The method, then:
as §2

The target is the same in experiment [6]. Description: SPR (Biacore 8K): antibody captured on a protein A chip, 5T4 protein injected at 0.625-10 nM, 1:1 binding model. The method, then: as §2
In experiment [7] the target is FcγRIIIa (158V) (UniProt P08637). Description: SPR (Biacore 8K), antibody captured on Protein A chip, Fc receptor as analyte, 1:1 model.
Experiment [8] deals with FcγRI (Abcam) (UniProt P12314). The experiment is described as above.
Sequence of FcγRI (Abcam) (P12314 16-288 limits assumed): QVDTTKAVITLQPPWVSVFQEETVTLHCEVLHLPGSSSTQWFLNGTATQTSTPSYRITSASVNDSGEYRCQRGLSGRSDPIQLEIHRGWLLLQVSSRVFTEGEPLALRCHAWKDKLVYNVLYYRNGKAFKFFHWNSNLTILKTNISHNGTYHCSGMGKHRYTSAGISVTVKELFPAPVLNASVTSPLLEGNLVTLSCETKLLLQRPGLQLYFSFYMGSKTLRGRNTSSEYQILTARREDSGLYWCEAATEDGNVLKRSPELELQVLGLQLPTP

Sequence of FcγRIIIa (158V) (P08637 17-208 F176V): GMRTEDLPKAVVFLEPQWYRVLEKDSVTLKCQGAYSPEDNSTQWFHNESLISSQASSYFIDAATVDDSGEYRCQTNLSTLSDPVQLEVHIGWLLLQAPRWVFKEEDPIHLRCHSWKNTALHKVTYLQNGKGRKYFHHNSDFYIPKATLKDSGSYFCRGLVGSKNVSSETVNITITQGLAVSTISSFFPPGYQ

B1: mouse antibody No. 2 ((m)Ab2) (antibody, V domains shown)
VH: EVKLLESGGGLVQPGGSLKLSCAASGFDFSRYWMTWVRQAPGKGLEWIGEINPDSRTINYTPSLKDKFIISRDNAKNTLYLHMSKVRSEDTALYYCARPDHDYNPYYFNYWGQGTTLTVSS
VL: DIVLTQSPASLAVSLGQRATISCRPSQSVSTSSNSYIHWYQQKPGQPPKLLIKYASNLESGVPARFSGSGSGTDFTLNIHPVEEEDTATYYCQQSWEIPLTFGAGTKLELK
notes: Mouse IgG; also called mouse Ab2; mouse monospecific antibody Ab2
In general, koff refers to the rate constant with which the complex falls apart. In general, kon refers to the second-order rate constant of association. The term Kd denotes the concentration at which binding is half-saturated. B1: the “epitope binding on 5T4” value in experiment [1] is reported as “non-overlapping epitopes”. In addition, in experiment [2], the off-rate (koff) was 0.000273 s⁻¹ and the kon came to 203000 M⁻¹ s⁻¹. Besides, in experiment [3], the dissociation constant (Kd) is 1.34 nM.

B2: Bs3-HL biparatopic anti-5T4 antibody (Bs3 orientation, scFv in the VH-VL orientation) (bispecific antibody, human IgG1, kappa)
heavy: QVQLVQSGAEVKKPGASVKVSCKASGYSFTDYYMHWVRQAPGQGLEWMGRVSPNNGATNTNQKFKDRVTMTRDTSISTAYMELRSLRSEDTAVYYCARSTMITSYYFDYWGQGTLVTVSSASTKGPSVFPLAPSSKSTSGGTAALGCLVKDYFPEPVTVSWNSGALTSGVHTFPAVLQSSGLYSLSSVVTVPSSSLGTQTYICNVNHKPSNTKVDKRVEPKSCDKTHTCPPCPAPEFLGGPCVFLFPPKPKDTLMISRTPEVTCVVVDVSHEDPEVKFNWYVDGVEVHNAKTKPREEQYNSTYRVVSVLTVLHQDWLNGKEYKCKVSNKALPAPIEKTISKAKGQPREPQVYTLPPSREEMTKNQVSLTCLVKGFYPSDIAVEWESNGQPENNYKTTPPVLDSDGSFFLYSKLTVDKSRWQQGNVFSCSVMHEALHAHYTQKSLSLSPGKGGGGSGGGGSGGGGSEVQLLESGGGLVQPGGSLRLSCAASGFDFSRYWMTWVRQAPGKCLEWVSEINPDSRTINYTPSLKDRFTISRDNAKNTLYLQMNSLRAEDTAVYYCARPDHDYNPYYFNYWGQGTTVTVSSGGGGSGGGGSGGGGSGGGGSDIVLTQSPASLAVSLGQRATISCRPSQSVSTSSNSYIHWYQQKPGQPPKLLIKYASNLESGVPARFSGSGSGTDFTLTISPVEAEDTATYYCQQSWEIPLTFGCGTKLEIK
light: DIVMTQSPSFLSVSVGDRVTITCKASQSVSTDVAWYQQKPGQAPKLLIYFASDRYTGVPDRFSGSGSGTDFTFTISSLQAEDVAVYYCQQDYSSPPTFGGGTKLEIKRTVAAPSVFIFPPSDEQLKSGTASVVCLLNNFYPREAKVQWKVDNALQSGNSQESVTEQDSKDSTYSLSSTLTLSKADYEKHKVYACEVTHQGLSSPVTKSFNRGEC
notes: The heavy chain is Ab1 heavy chain (IgG1), linker, then Ab2 scFv (VH-linker-VL); Bs3-HL is described as the form without FCA, so its real Fc may have L, S and N at those positions; also called bispecific antibody in the Bs3-HL orientation; Bispecific 5T4-BS3 antibody
As to B2, the Kd in experiment [4] came out at 0.0742 nM; in experiment [5], 0.742 nM; in experiment [2], 0.00363 nM.

B3: mouse antibody No. 1 ((m)Ab1) (antibody, V domains shown)
VH: EVQLQQSGPDLVKPGASVKISCKASGYSFTDYYMHWVKQSHGKSLEWIGRVSPNNGATNTNQKFKDKAILTVDKSSSTAYMDLRSLTSEDSAVYYCARSTMITSYYFDYWGQGTTLTVSS
VL: SIVMTQTPKFLLVSAGDRITITCKASQSVSTDVAWYQQKPGQSPKLLIYFASDRYTGVPDRFTGSGNGTDFTFTITTVQAEDLAIYFCQQDYSSPPTFGGGTKLEIK
notes: Mouse IgG, captured by anti-mouse IgG antibodies; also called mouse Ab1; mouse monospecific antibody Ab1
B3: the “epitope binding on 5T4” value in experiment [1] is reported as “non-overlapping epitopes”. For the same molecule, in experiment [2], the off-rate (koff) came to 0.000421 s⁻¹ and the kon amounted to 259000 M⁻¹ s⁻¹. Further, the Kd in experiment [3] turned out to be 1.43 nM.

B4: humanized antibody No. 1 ((h)Ab1) (antibody, V domains shown)
VH: QVQLVQSGAEVKKPGASVKVSCKASGYSFTDYYMHWVRQAPGQGLEWMGRVSPNNGATNTNQKFKDRVTMTRDTSISTAYMELRSLRSEDTAVYYCARSTMITSYYFDYWGQGTLVTVSS
VL: DIVMTQSPSFLSVSVGDRVTITCKASQSVSTDVAWYQQKPGQAPKLLIYFASDRYTGVPDRFSGSGSGTDFTFTISSLQAEDVAVYYCQQDYSSPPTFGGGTKLEIK
notes: The FcγR assay calls it 'without Fc mutations'; also called humanized Ab1; humanized monospecific antibody Ab1
For B4, the dissociation constant Kd is 0.198 nM in experiment [5], 50.5 nM in experiment [7] and 3.73 nM in experiment [8]. In addition, the koff in experiment [6] came out at 0.000248 s⁻¹. Also, in experiment [6], the kon amounted to 1.25e+06 M⁻¹ s⁻¹.
